Results: publication PMC5382021

Assays:
Test in all cases: purified protein
[1] = system: Nc1nc2c(ncn2[C@@H]2O[C@@H]3COP(=O)(O)O[C@H]4[C@@H](O)[C@H](n5cnc6c(N)ncnc65)O[C@@H]4COP(=O)(O)O[C@H]3[C@H]2O)c(=O)[nH]1; conditions: 50 mM Tris pH 7.5, 5 mM MnCl2, 37 °C
[2] = system: Nc1nc2c(ncn2[C@@H]2O[C@@H]3CO[P@](=O)(O)O[C@H]4[C@@H](O)[C@H](n5cnc6c(=O)[nH]c(N)nc65)O[C@@H]4CO[P@](=O)(O)O[C@H]3[C@H]2O)c(=O)[nH]1; conditions: 50 mM Tris pH 7.5, 5 mM MnCl2, 37 °C
[3] = system: [H][C@@]1(O)[C@]2([H])OP(=O)(O)OC[C@@]3([H])O[C@@]([H])(n4cnc5c(N)ncnc54)[C@]([H])(O)[C@]3([H])OP(=O)(O)OC[C@@]2([H])O[C@@]1([H])n1cnc2c(N)ncnc21; conditions: 50 mM Tris pH 7.5, 5 mM MnCl2, 37 °C
[4] = system: Nc1nc2c(ncn2[C@@H]2O[C@H](CO)[C@H]3OP(=O)(O)O[C@H]32)c(=O)[nH]1; conditions: 2 mM Mn2+, pH 7.5
[5] = system: O=c1ccn([C@@H]2O[C@H](CO)[C@H]3OP(=O)(O)O[C@H]32)c(=O)[nH]1; conditions: 2 mM Mn2+, pH 7.5

Substance: rCdnP (CdnP, Gbs1929) (Streptococcus agalactiae 2603V/R)
- Km [1]: 4.0 ± 1.6 µM
- kcat [1]: 4.5 s⁻¹
- kcat/Km [1]: 1.1e+06 M⁻¹ s⁻¹
- Km [2]: 13.2 ± 6 µM
- kcat [2]: 2.6 s⁻¹
- kcat/Km [2]: 190000 M⁻¹ s⁻¹
- Km [3]: 14 ± 1 µM
- kcat [3]: 17.4 s⁻¹
- kcat/Km [3]: 1.2e+06 M⁻¹ s⁻¹
- Km [4]: 22 ± 4 µM
- kcat [4]: 9.4 s⁻¹
- kcat/Km [4]: 420000 M⁻¹ s⁻¹
- Km [5]: 42 ± 10 µM
- kcat [5]: 19.8 s⁻¹
- kcat/Km [5]: 470000 M⁻¹ s⁻¹
